Laboratory results published in paper PMC12578633.

Columns and labels:
[1] = target: H5 A/Cambodia/2302009/2023 HA ectodomain (influenza A virus H5N1 A/Cambodia/2302009/2023)
[2] = target: H5 A/Indonesia/05/2005 HA ectodomain (influenza A virus H5N1 A/Indonesia/05/2005)
[3] = target: H5 A/Sichuan/26221/2014 HA ectodomain (influenza A virus H5N6 A/Sichuan/26221/2014)
[4] = target: H5 A/Victoria/149/2024 HA ectodomain (influenza A virus H5N1 A/Victoria/149/2024)

B1: 326-289.74 (IgG1) (antibody, V domains shown)
VH: QVQLVQSGAEVKKPGSSVKVSCKASGGTFSIYTFTWVRQAPGHGLEWMGGILPISGSAKYAQKFLGRVTITADESTSTVYMELSSLRSEDTAIYYCARDPYSNYFYGLDVWGQGTTVTVSS
VL: EIVLTQSPVTLSLSPGERATLSCRASQSVSRFLAWYQQKPGQAPRLLFYDASTRATGIPARFSGTGSGTDFTLTISGLEPEDFAVYYCQQRSNWPPEYSFGQGTKLEIK
- neutralization IC80, R4ΔPB1 reporter virus H5N1 A/Cambodia/2302009/2023 [1]: 0.133 µg/mL
- neutralization IC80, R4ΔPB1 reporter virus H5N1 A/Indonesia/05/2005 [2]: 0.014 µg/mL
- neutralization IC80, R4ΔPB1 reporter virus H5N6 A/Sichuan/26221/2014 [3]: 0.006 µg/mL
- neutralization IC80, R4ΔPB1 reporter virus H5N1 A/Victoria/149/2024 [4]: 0.335 µg/mL

B2: 326-366.26 (IgG1) (antibody, V domains shown)
VH: QMQLQESGPGLVKPSGTLSLTCAVSGGSISNSHWWSWVRQSPGKGLEWIGEIYHSGSTYYNPSLKSRLTISVDKSKNQFSLKLTSVTAADTAVYFCARGLGWEQGGYRAFDMWGQGTTVTVSS
VL: EIVMTQSPATLSVSPGERVTLSCRASQSVGSSLAWYQQKPGQAPRLLIYAASTRATGIPARFSGSGSGTEFTLTISSLQSEDFAVYYCQQHYNWPPLTFGGGTKVEIK
- neutralization IC80, R4ΔPB1 reporter virus H5N1 A/Cambodia/2302009/2023 [1]: > 25 µg/mL
- neutralization IC80, R4ΔPB1 reporter virus H5N1 A/Indonesia/05/2005 [2]: 0.009 µg/mL
- neutralization IC80, R4ΔPB1 reporter virus H5N6 A/Sichuan/26221/2014 [3]: 0.008 µg/mL
- neutralization IC80, R4ΔPB1 reporter virus H5N1 A/Victoria/149/2024 [4]: 0.193 µg/mL
